According to US20020045591A1, “Methods and therapeutic compositions for treating cancer” (priority 1998, published 2002):

Biological target: T1, LEF-1-β-catenin complex (Mus musculus, UniProt Q02248)
T1 construct: expressed in transfected cells; host or cells: CHO cells, transient transfection
T1 sequence (Q02248 1-781): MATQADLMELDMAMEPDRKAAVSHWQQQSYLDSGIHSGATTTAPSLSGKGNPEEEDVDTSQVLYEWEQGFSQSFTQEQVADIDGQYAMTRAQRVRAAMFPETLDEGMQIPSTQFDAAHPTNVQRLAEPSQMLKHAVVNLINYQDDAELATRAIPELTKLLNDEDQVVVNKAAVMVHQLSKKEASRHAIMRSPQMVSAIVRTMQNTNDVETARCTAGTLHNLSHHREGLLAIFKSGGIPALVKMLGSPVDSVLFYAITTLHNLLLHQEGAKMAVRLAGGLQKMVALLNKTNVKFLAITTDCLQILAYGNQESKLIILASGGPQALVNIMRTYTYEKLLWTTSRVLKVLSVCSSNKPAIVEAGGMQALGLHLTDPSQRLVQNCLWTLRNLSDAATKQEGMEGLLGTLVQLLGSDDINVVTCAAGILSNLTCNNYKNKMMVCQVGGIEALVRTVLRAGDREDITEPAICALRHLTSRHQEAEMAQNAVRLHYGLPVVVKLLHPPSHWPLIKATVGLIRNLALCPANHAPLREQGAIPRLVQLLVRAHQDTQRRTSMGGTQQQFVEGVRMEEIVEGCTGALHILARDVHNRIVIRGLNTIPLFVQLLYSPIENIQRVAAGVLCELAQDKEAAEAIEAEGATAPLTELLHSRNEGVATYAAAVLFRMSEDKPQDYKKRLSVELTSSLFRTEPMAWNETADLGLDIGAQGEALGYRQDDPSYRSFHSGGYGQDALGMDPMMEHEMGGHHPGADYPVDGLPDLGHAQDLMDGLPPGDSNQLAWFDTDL
Test: Competition with LEF-1 for β-catenin binding (HA-LEF-1 immunoprecipitation, CHO cells)
Settings: increasing amounts of N-cadherin tail cDNA, FIG. 8
Description: Immunoblotting and immunoprecipitation: The following antibodies were used: polyclonal pan-cadherin or monoclonal anti cadherin (CH-19) and polyclonal anti β-catenin antibodies were from Sigma (Holon, Israel). Monoclonal anti β-catenin, 5H10 (from M. Wheelock), anti IL2Rα (from UBI), anti flag (M2, from IBI), anti HA (clone 12CA5, from Boehringer Mannheim, Germany), anti GFP (polyclonal, from Clontech, Palo Alto, Calif.), anti LEF-1 (polyclonal, kindly provided by Dr. R. Grosschedl). Secondary antibodies for Western blotting were goat anti rabbit or anti mouse conjugated to HRP (Amersham, Buckinghampshire, UK), and for immunofluorescence analysis the secondary antibodies were FITC-goat anti mouse (Cappel, USA) or rhodamine-anti rabbit antibodies (from Jackson Immuno-Research, West Grove, Pa.). […]
The N-cadherin tail inhibits the formation of a LEF-1-β-catenin complex: The inhibition by N-cadherin of β-catenin driven-transactivation could result from either displacement of LEF-1 binding to β-catenin by N-cadherin, or by formation of a ternary complex (cadherin-LEF-1-β-catenin) that has no transactivation potential. […] After transfection, LEF-1 was immunoprecipitated with anti HA antibody and the associated β-catenin was detected by Western blot analysis (FIG. 8A). […]

B1: N-cadherin tail: Cytoplasmic domain of chicken N-cadherin tagged with a Flag epitope (protein)
chain: MKRRDKERQAKQLLIDPEDDVRDNILKYDEEGGGEEDQDYDLSQLQQPDTVEPDAIKPVGIRRLDERPIHAEPQYPVRSAAPHPGDIGDFINEGLKAADNDPTAPPYDSLLVFDYEGSGSTAGSLSSLNSSSSGGEQDYDYLNDWGPRFKKLADMYGGGDD
modifications: left off: small tags and cut ends
- β-catenin binding to LEF-1: inhibited β-catenin binding to LEF-1 in a dose dependent manner
